This data set has as its target T1, α-fructosyl hexapeptide (α-fructosyl-valyl-histidyl-leucyl-threonyl-propyl-glutamic acid).
T1 chain: VHLTPE

This is an account of results in patent US20150118700.

B1: CFP-T7-H2-62Q (protein)
chain: MTSNRADTRVIVVGGGGTIGSSTALHLVRSGYAPANITVLDTFEIPSAQSAGHDLNKIMGIQLRNKVDLQMSLEARQMWKEDELFQPFFHNTGRMDCEHTPEGIEDLKKLYQALHDAGAGLEKTHAWLDNEDEILSKMPLLQRDQIQGWKAIWSQDGGWLAAAKAINAIGQFLKERGVKFGFGGAGSFKQPLFDDEGTTCIGVETADGTKYYADKVVLAAGAWSPTLVDLEDQCCSKAWVYAHIQLTPEEAAEYKGVPVVYNGEFGFFFEPDEFGVIKVCDEFPGFSRFKEHQPYGAPSPKRISVPRSHAKHPTDTYPDASEVSIKKAIATFLPRFQDKELFNRALCWCTDTADAALLMCEHPKWKNFILATGDSGHSFKILPNVGKYVVELIEGRLPEEMAYQWRWRPGGDALKSRRAAPPKDLADMPGWKHDPKL
Regarding B1, the αF6P oxidation activity ratio, relative to CFP-T7-H2 designated to be 100 (relative (CFP-T7-H2 = 100)) was determined as 11.

B2: CFP-T7-H12 (protein)
chain: MTSNRADTRVIVVGGGGTIGSSTALHLVRSGYAPANITVLDTFEIPSAQSAGHDLNKIMGIDLRNKVDLQMSLEARQMWKEDELFQPFFHNTGRMDCEHTPEGIERLKKLYQALHDAGAGLEKTHAWLDNEDEILSKMPLLQRDQIQGWKAIWSQDGGWLAAAKAINAIGQFLKERGVKFGFGGAGSFKQPLFDDEGTTCIGVETADGTKYYADKVVLAAGAWSPTLVDLEDQCCSKAWVYAHIQLTPEEAAEYKGVPVVYNGEFGFFFEPDEFGVIKVCDEFPGFSRFKEHQPYGAPSPKRISVPRSHAKHPTDTYPDASEVSIKKAIATFLPRFQDKELFNRALCWCTDTADAALLMCEHPKWKNFILATGDSGHSFKILPNVGKYVVELIEGRLPEEMAYQWRWRPGGDALKSRRAAPPKDLADMPGWKHDPKL
For B2, the αF6P oxidation activity ratio, relative to CFP-T7-H6 designated to be 100 (relative (CFP-T7-H6 = 100)) was 636 and the αF6P oxidation activity, relative to αFVH oxidation activity designated to be 100 (relative (αFVH = 100)) was determined as 11.6.

B3: CFP-T7-H9 (protein)
chain: MTSNRADTRVIVVGGGGTIGSSTALHLVRSGYAPANITVLDTFEIPSAQSAGHDLNKIMGIDLHNKVDLQMSLEARQMWKEDELFQPFFHNTGRMDCEHTPEGIEDLKKLYQALHDAGAGLEKTHAWLDNEDEILSKMPLLQRDQIQGWKAIWSQDGGWLAAAKAINAIGQFLKERGVKFGFGGAGSFKQPLFDDEGTTCIGVETADGTKYYADKVVLAAGAWSPTLVDLEDQCCSKAWVYAHIQLTPEEAAEYKGVPVVYNGEFGFFFEPDEFGVIKVCDEFPGFSRFKEHQPYGAPSPKRISVPRSHAKHPTDTYPDASEVSIKKAIATFLPRFQDKELFNRALCWCTDTADAALLMCEHPKWKNFILATGDSGHSFKILPNVGKYVVELIEGRLPEEMAYQWRWRPGGDALKSRRAAPPKDLADMPGWKHDPKL
Turning to B3, the αF6P oxidation activity ratio, relative to CFP-T7-H6 designated to be 100 (relative (CFP-T7-H6 = 100)) was found to be 44.

B4: CFP-T7-H6 (protein)
chain: MTSNRADTRVIVVGGGGTIGSSTALHLVRSGYAPANITVLDTFEIPSAQSAGHDLNKIMGIDLRNKVDLQMSLEARQMWKEDELFQPFFHNTGRMDCEHTPEGIEDLKKLYQALHDAGAGLEKTHAWLDNEDEILSKMPLLQRDQIQGWKAIWSQDGGWLAAAKAINAIGQFLKERGVKFGFGGAGSFKQPLFDDEGTTCIGVETADGTKYYADKVVLAAGAWSPTLVDLEDQCCSKAWVYAHIQLTPEEAAEYKGVPVVYNGEFGFFFEPDEFGVIKVCDEFPGFSRFKEHQPYGAPSPKRISVPRSHAKHPTDTYPDASEVSIKKAIATFLPRFQDKELFNRALCWCTDTADAALLMCEHPKWKNFILATGDSGHSFKILPNVGKYVVELIEGRLPEEMAYQWRWRPGGDALKSRRAAPPKDLADMPGWKHDPKL
For the protein B4, the αF6P oxidation activity ratio (reference, designated to be 100) (relative (CFP-T7-H6 = 100)) stood at 100; the αF6P oxidation activity ratio, relative to CFP-T7-H2 designated to be 100 (relative (CFP-T7-H2 = 100)) was 513; the αF6P oxidation activity, relative to αFVH oxidation activity designated to be 100 (relative (αFVH = 100)) is 3.

B5: CFP-T7-H2-62E (protein)
chain: MTSNRADTRVIVVGGGGTIGSSTALHLVRSGYAPANITVLDTFEIPSAQSAGHDLNKIMGIELRNKVDLQMSLEARQMWKEDELFQPFFHNTGRMDCEHTPEGIEDLKKLYQALHDAGAGLEKTHAWLDNEDEILSKMPLLQRDQIQGWKAIWSQDGGWLAAAKAINAIGQFLKERGVKFGFGGAGSFKQPLFDDEGTTCIGVETADGTKYYADKVVLAAGAWSPTLVDLEDQCCSKAWVYAHIQLTPEEAAEYKGVPVVYNGEFGFFFEPDEFGVIKVCDEFPGFSRFKEHQPYGAPSPKRISVPRSHAKHPTDTYPDASEVSIKKAIATFLPRFQDKELFNRALCWCTDTADAALLMCEHPKWKNFILATGDSGHSFKILPNVGKYVVELIEGRLPEEMAYQWRWRPGGDALKSRRAAPPKDLADMPGWKHDPKL
In the case of B5, the αF6P oxidation activity ratio, relative to CFP-T7-H2 designated to be 100 (relative (CFP-T7-H2 = 100)) was 21.

B6: CFP-T7-H2 (protein)
chain: MTSNRADTRVIVVGGGGTIGSSTALHLVRSGYAPANITVLDTFEIPSAQSAGHDLNKIMGIALRNKVDLQMSLEARQMWKEDELFQPFFHNTGRMDCEHTPEGIEDLKKLYQALHDAGAGLEKTHAWLDNEDEILSKMPLLQRDQIQGWKAIWSQDGGWLAAAKAINAIGQFLKERGVKFGFGGAGSFKQPLFDDEGTTCIGVETADGTKYYADKVVLAAGAWSPTLVDLEDQCCSKAWVYAHIQLTPEEAAEYKGVPVVYNGEFGFFFEPDEFGVIKVCDEFPGFSRFKEHQPYGAPSPKRISVPRSHAKHPTDTYPDASEVSIKKAIATFLPRFQDKELFNRALCWCTDTADAALLMCEHPKWKNFILATGDSGHSFKILPNVGKYVVELIEGRLPEEMAYQWRWRPGGDALKSRRAAPPKDLADMPGWKHDPKL
Consider B6, for which the αF6P oxidation activity ratio (reference, designated to be 100) (relative (CFP-T7-H2 = 100)) was found to be 100 and the αF6P oxidation activity, relative to αFVH oxidation activity designated to be 100 (relative (αFVH = 100)) was 0.0735.

B7: CFP-T7-H10 (protein)
chain: MTSNRADTRVIVVGGGGTIGSSTALHLVRSGYAPANITVLDTFEIPSAQSAGHDLNKIMGIDLRNKVDLQMSLEARQMWKEDELFQPFFHNTGRMDCEHTPEGIEALKKLYQALHDAGAGLEKTHAWLDNEDEILSKMPLLQRDQIQGWKAIWSQDGGWLAAAKAINAIGQFLKERGVKFGFGGAGSFKQPLFDDEGTTCIGVETADGTKYYADKVVLAAGAWSPTLVDLEDQCCSKAWVYAHIQLTPEEAAEYKGVPVVYNGEFGFFFEPDEFGVIKVCDEFPGFSRFKEHQPYGAPSPKRISVPRSHAKHPTDTYPDASEVSIKKAIATFLPRFQDKELFNRALCWCTDTADAALLMCEHPKWKNFILATGDSGHSFKILPNVGKYVVELIEGRLPEEMAYQWRWRPGGDALKSRRAAPPKDLADMPGWKHDPKL
B7: the αF6P oxidation activity ratio, relative to CFP-T7-H6 designated to be 100 (relative (CFP-T7-H6 = 100)) came out at 301.

B8: CFP-T7-H8 (protein)
chain: MTSNRADTRVIVVGGGGTIGSSTALHLVRSGYAPANITVLDTFEIPSAQSAGHDLNKIMGIDLENKVDLQMSLEARQMWKEDELFQPFFHNTGRMDCEHTPEGIEDLKKLYQALHDAGAGLEKTHAWLDNEDEILSKMPLLQRDQIQGWKAIWSQDGGWLAAAKAINAIGQFLKERGVKFGFGGAGSFKQPLFDDEGTTCIGVETADGTKYYADKVVLAAGAWSPTLVDLEDQCCSKAWVYAHIQLTPEEAAEYKGVPVVYNGEFGFFFEPDEFGVIKVCDEFPGFSRFKEHQPYGAPSPKRISVPRSHAKHPTDTYPDASEVSIKKAIATFLPRFQDKELFNRALCWCTDTADAALLMCEHPKWKNFILATGDSGHSFKILPNVGKYVVELIEGRLPEEMAYQWRWRPGGDALKSRRAAPPKDLADMPGWKHDPKL
As for B8, the αF6P oxidation activity ratio, relative to CFP-T7-H6 designated to be 100 (relative (CFP-T7-H6 = 100)) was determined as 2.

B9: CFP-T7-H13 (protein)
chain: MTSNRADTRVIVVGGGGTIGSSTALHLVRSGYAPANITVLDTFEIPSAQSAGHDLNKIMGIDLRNKVDLQMSLEARQMWKEDELFQPFFHNTGRMDCEHTPEGIEDLKKLYQKLHDAGAGLEKTHAWLDNEDEILSKMPLLQRDQIQGWKAIWSQDGGWLAAAKAINAIGQFLKERGVKFGFGGAGSFKQPLFDDEGTTCIGVETADGTKYYADKVVLAAGAWSPTLVDLEDQCCSKAWVYAHIQLTPEEAAEYKGVPVVYNGEFGFFFEPDEFGVIKVCDEFPGFSRFKEHQPYGAPSPKRISVPRSHAKHPTDTYPDASEVSIKKAIATFLPRFQDKELFNRALCWCTDTADAALLMCEHPKWKNFILATGDSGHSFKILPNVGKYVVELIEGRLPEEMAYQWRWRPGGDALKSRRAAPPKDLADMPGWKHDPKL
Take B9: the αF6P oxidation activity ratio, relative to CFP-T7-H6 designated to be 100 (relative (CFP-T7-H6 = 100)) is 207 and the αF6P oxidation activity, relative to αFVH oxidation activity designated to be 100 (relative (αFVH = 100)) was determined as 4.33.

B10: CFP-T7-H11 (protein)
chain: MTSNRADTRVIVVGGGGTIGSSTALHLVRSGYAPANITVLDTFEIPSAQSAGHDLNKIMGIDLRNKVDLQMSLEARQMWKEDELFQPFFHNTGRMDCEHTPEGIEKLKKLYQALHDAGAGLEKTHAWLDNEDEILSKMPLLQRDQIQGWKAIWSQDGGWLAAAKAINAIGQFLKERGVKFGFGGAGSFKQPLFDDEGTTCIGVETADGTKYYADKVVLAAGAWSPTLVDLEDQCCSKAWVYAHIQLTPEEAAEYKGVPVVYNGEFGFFFEPDEFGVIKVCDEFPGFSRFKEHQPYGAPSPKRISVPRSHAKHPTDTYPDASEVSIKKAIATFLPRFQDKELFNRALCWCTDTADAALLMCEHPKWKNFILATGDSGHSFKILPNVGKYVVELIEGRLPEEMAYQWRWRPGGDALKSRRAAPPKDLADMPGWKHDPKL
In the case of B10, the αF6P oxidation activity ratio, relative to CFP-T7-H6 designated to be 100 (relative (CFP-T7-H6 = 100)) stood at 951 and the αF6P oxidation activity, relative to αFVH oxidation activity designated to be 100 (relative (αFVH = 100)) was determined as 12.5.

B11: CFP-T7-H7 (protein)
chain: MTSNRADTRVIVVGGGGTIGSSTALHLVRSGYAPANITVLDTFEIPSAQSAGHDLNKIMGIDLANKVDLQMSLEARQMWKEDELFQPFFHNTGRMDCEHTPEGIEDLKKLYQALHDAGAGLEKTHAWLDNEDEILSKMPLLQRDQIQGWKAIWSQDGGWLAAAKAINAIGQFLKERGVKFGFGGAGSFKQPLFDDEGTTCIGVETADGTKYYADKVVLAAGAWSPTLVDLEDQCCSKAWVYAHIQLTPEEAAEYKGVPVVYNGEFGFFFEPDEFGVIKVCDEFPGFSRFKEHQPYGAPSPKRISVPRSHAKHPTDTYPDASEVSIKKAIATFLPRFQDKELFNRALCWCTDTADAALLMCEHPKWKNFILATGDSGHSFKILPNVGKYVVELIEGRLPEEMAYQWRWRPGGDALKSRRAAPPKDLADMPGWKHDPKL
With B11, the αF6P oxidation activity ratio, relative to CFP-T7-H6 designated to be 100 (relative (CFP-T7-H6 = 100)) was determined as 17.
